Experimental data reported in paper PMC3479641 (Structure (London, England : 1993), 2012).

T1: Cas5d from B. halodurans, His6-tagged, co-expressed with Csd1, Csd2 and pre-crRNA (B. halodurans, UniProt Q9KFY3 1-236)
T1 sequence: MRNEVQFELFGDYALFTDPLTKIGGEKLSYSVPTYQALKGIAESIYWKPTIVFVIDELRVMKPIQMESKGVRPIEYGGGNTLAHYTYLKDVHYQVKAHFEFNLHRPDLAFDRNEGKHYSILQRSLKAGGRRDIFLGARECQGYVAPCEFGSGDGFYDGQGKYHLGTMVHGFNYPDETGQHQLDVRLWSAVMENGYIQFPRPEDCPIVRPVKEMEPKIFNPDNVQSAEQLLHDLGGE


Target: T1, Cas5d from B. halodurans, His6-tagged, …
Assay: SEC

| stoichiometry N | Binder |
| --- | --- |
| ~1 copies in the complex (with two copies of Cas5d and six copies of Csd2) | Csd1 from B. halodurans, co-expressed with Cas5d, Csd2 and pre-crRNA (natural protein, UniProt Q9KFY2 1-627, looked up) MSWLLHLYETYEANLDQVGKTVKKGEDREYTLLPISHTTQNAHIEVTLDEDGDFLRAKALTKESTLIPCTEEAASRSGSKVAPYPLHDKLSYVAGDFVKYGGKIKNQDDAPFDTYIKNLGEWANSPYATEKVKCIYTYLKKGRLIEDLVDAGVLKLDENQQLIEKWEKRYEELLGEKPAIFSSGATDQASAFVRFNVFHPESIDDVWKDKEMFDSFISFYNDKLGEEDICFVTGNRLPSTERHANKIRHAADKAKLISANDNSGFTFRGRFKTSREAVGISYEVSQKAHNALKWLIHRQSKSIDDRVFLVWSNDNSLVPNPDEDAVDIMKHANRELERDPDTGQIFAGEVKKAIGGYRSDLNYQPEVHILVLDSATTGRMAVLYYRSLNKELYLNRLEAWHDSCAWEHRYRRDEKEFISFYGAPATKDIAFAAYGPRASEKVIKDLMERMLPCIVDGRRVPKDIVRSAFQRASNPVSMERWEWEKTLSITCALIRKMHIEQKEEWGVPLDKSSTDRSYLFGRLLAVADVLERGALGKDETRATNAIRYMNSYSKNPGRTWKTIQESLQPYQAKLGTKATYLSKLVDEIGDQFEPGDFNNNPLTEQYLLGFYSQRRELYKKKEEETNQ |
| ~6 copies in the complex (with two copies of Cas5d and one copy of Csd1) | Csd2 from B. halodurans, Strep-II-tagged, co-expressed with Cas5d, Csd1 and pre-crRNA (natural protein, UniProt Q9KFY1 1-283, looked up) MTILDHKIDFAVILSVTKANPNGDPLNGNRPRQNYDGHGEISDVAIKRKIRNRLLDMEEPIFVQSDDRKADSFKSLRDRADSNPELAKMLKAKNASVDEFAKIACQEWMDVRSFGQVFAFKGSNLSVGVRGPVSIHTATSIDPIDIVSTQITKSVNSVTGDKRSSDTMGMKHRVDFGVYVFKGSINTQLAEKTGFTNEDAEKIKRALITLFENDSSSARPDGSMEVHKVYWWEHSSKLGQYSSAKVHRSLKIESKTDTPKSFDDYAVELYELDGLGVEVIDGQ |
